Source: patent publication US20140363427A1 (CRUCELL HOLLAND B V, published 2014)
Where two headings read alike, the source gives them in different places.

What was measured:
[1] = target: F protein of the parental RSV A2 strain (Example 11) (Respiratory Syncytial Virus strain A2, UniProt P03420 26-574); assay: cell-based or functional assay
[2] = target: T1, native RSV F protein from the RSV A2 strain (Respiratory Syncytial Virus strain A2, UniProt P03420 26-574); assay: ELISA, IgG titrated, estimated EC50
T1 construct: also called HEp2 lysate (native); purified RSV F protein (native)

[3] = target: T1, native RSV F protein from the RSV A2 …; assay: cell-based or functional assay
F protein of RSV B-1 = F protein of RSV B-1 (respiratory syncytial virus B-1, UniProt O36634 26-574); assay: cell-based or functional assay
[4] = target: F protein of RSV B-wash (strain 18537) (respiratory syncytial virus B, strain …, UniProt P13843 26-574); assay: cell-based or functional assay
[5] = target: T1, native RSV F protein from the RSV A2 …; assay: cell-based or functional assay; remark: listed apart in the source
[6] = target: T2, recombinant RSV F protein, strain A2, extracellular domain (Respiratory Syncytial Virus strain A2, UniProt P03420 26-524); assay: ELISA, purified Fab, estimated EC50
T2 construct: also called RSV F1 lysate (recombinant); RSV F lysate

[7] = target: F protein of the parental RSV A2 strain (Example 11) (Respiratory Syncytial Virus strain A2, UniProt P03420 26-574); assay: cell-based or functional assay; remark: listed apart in the source
RSV F A2 mutant V278M = target: T3, RSV F A2 mutant V278M (human RSV, A2 strain, UniProt P03420 26-574); assay: mutant F in HEK 293 cells
T3 construct: whole, on cells

Binder | ED50, plaque reduction, RSV A2 parental [1] [nM] | EC50 [2] [nM] | ED50, plaque reduction, RSV A2 [3] [nM] | ED50, plaque reduction, RSV B-1 (F protein of RSV B-1) [nM] | ED50, plaque reduction, RSV B/wash [4] [nM] | ED50, plaque reduction, RSV A2 [5] [nM] | ED50, plaque reduction, RSV A2 (mass concentration) [5] [µg/mL] | EC50 [6] [nM] | ED50, plaque reduction, RSV A2 parental [7] [nM] | ratio of binding 58C5/30D8 (RSV F A2 mutant V278M)
Motavizumab IgG (antibody, V domains shown) VH: QVTLRESGPALVKPTQTLTLTCTFSGFSLSTAGMSVGWIRQPPGKALEWLADIWWDDKKHYNPSLKDRLTISKDTSKNQVVLKVTNMDPADTATYYCARDMIFNFYFDVWGQGTTVTVSS VL: DIQMTQSPSTLSASVGDRVTITCSASSRVGYMHWYQQKPGKAPKLLIYDTSKLASGVPSRFSGSGSGTEFTLTISSLQPDDFATYYCFQGSGYPFTFGGGTKVEIK | 0.519 | 0.027 | 0.36 | 0.833 | 2.9 |  |  |  |  | 
Fab 14G3 (Fab, V domains shown) VH: QVQLQESGPGLVKPSQTLSLTCTVSGASISSDNHYWSWIRQPPGKGLEWIASIYYTGGTNYNPSLKSRLALSIDTSGDQFSLKLSSVTAADTAVYYCVRGLFFITARPYWYFDLWGRGTLVAVSS VL: DVVMTQTPLSLSVTPGEPASISCRSSQSLLDSDDGNTYLDWYLQKPGQSPQLLIYTLSYRASGVPDRFSGSGSGTDFTLKISRVEADDVGIYYCMQRMEFPFTFGQGTRLDIKR |  |  |  |  |  | 3.4 | 0.172 | 8.2 |  | 
IgG form of 30D8 (antibody, V domains shown, also called IgG 30D8; 30D8 Mab) VH: EVQLLQSGAELKKPGASVKISCKTSGFTFSGHTIAWVRQAPGQGLEWMGWVSTNNGNTEYAQKIQGRVTMTMDTSTSTVYMELRSLTSDDTAVYFCAREWLVMGGFAFDHWGQGTLLTVSS VL: QSVLTQASSVSVAPGQTARITCGANNIGSQNVHWYQQKPGQAPVLVVYDDRDRPSGIPDRFSGSNSGNTATLTISRVEAGDEADYYCQVWDSSRDQAVIFGGGTKLTVLG |  |  | 0.089 | 0.055 | 0.115 |  |  |  | 0.096 | 3.1
